Patent publication US20210238260
Positions count from the first letter of the chain named. Numbers in names are those of the source. Where “and” joins values, the source holds several entries; their conditions need not be identical. Identical values can stand only once.

B1: FIXa-R318Y/T343R/E410N (activated Factor IX variant, mature FIX numbering) (protein)
chain 1: YNSGKLEEFVQGNLERECMEEKCSFEEAREVFENTERTTEFWKQYVDGDQCESNPCLNGGSCKDDINSYECWCPFGFEGKNCELDVTCNIKNGRCEQFCKNSADNKVVCSCTEGYRLAENQKSCEPAVPFPCGRVSVSQTSKLTR
chain 2: VVGGEDAKPGQFPWQVVLNGKVDAFCGGSIVNEKWIVTAAHCVETGVKITVVAGEHNIEETEHTEQKRNVIRIIPHHNYNAAINKYNHDIALLELDEPLVLNSYVTPICIADKEYTNIFLKFGSGYVSGWGRVFHKGYSALVLQYLRVPLVDRATCLRSTKFRIYNNMFCAGFHEGGRDSCQGDSGGPHVTEVEGTSFLTGIISWGEECAMKGKYGIYTKVSRYVNWIKNKTKLT
B2: FIXa-K228N/R318Y/R338E/T343R/R403E/E410N (activated Factor IX variant, mature FIX numbering) (protein)
chain 1: B1 chain 1
chain 2: B1 chain 2 with K48N, R158E, R223E
B3: FIXa-K228N/K247N/N249S/R318Y/R338E/T343R/R403E (activated Factor IX variant, mature FIX numbering) (protein)
chain 1: B1 chain 1
chain 2: B1 chain 2 with K48N, K67N, N69S, R158E, R223E, N230E
B4: FIXa-K228N/K247N/N249S/R318Y/R338E/T343R/E410N (activated Factor IX variant, mature FIX numbering) (protein)
chain 1: B1 chain 1
chain 2: B1 chain 2 with K48N, K67N, N69S, R158E
B5: FIXa-D203N/F205T/K228N (protein)
chain 1: B1 chain 1
chain 2: B1 chain 2 with D23N, F25T, K48N, Y138R, R163T, N230E
B6: FIXa-D203N/F205T/E410N (protein)
chain 1: B1 chain 1
chain 2: B1 chain 2 with D23N, F25T, Y138R, R163T
B7: FIXa-D203N/F205T/R338E (protein)
chain 1: B1 chain 1
chain 2: B1 chain 2 with D23N, F25T, Y138R, R158E, R163T, N230E
B8: FIXa-D203N/F205T/R338A (protein)
chain 1: B1 chain 1
chain 2: B1 chain 2 with D23N, F25T, Y138R, R158A, R163T, N230E
B9: FIXa-D203N/F205T/R318Y (protein)
chain 1: B1 chain 1
chain 2: B1 chain 2 with D23N, F25T, R163T, N230E
B10: FIXa-D203N/F205T/R338E/R403E (protein)
chain 1: B1 chain 1
chain 2: B1 chain 2 with D23N, F25T, Y138R, R158E, R163T, R223E, N230E
B11: FIXa-D104N/K106S/R318Y/R338E/E410N (protein)
chain 1: B1 chain 1 with D104N, K106S
chain 2: B1 chain 2 with R158E, R163T
B12: FIXa-Y155F/R318Y/R338E/E410N (protein)
chain 1: B1 chain 1
chain 2: B1 chain 2 with R158E, R163T
B13: FIXa-K228N/R318Y/E410N (protein)
chain 1: B1 chain 1
chain 2: B1 chain 2 with K48N, R163T
B14: FIXa-R318Y/R403E/E410N (protein)
chain 1: B1 chain 1
chain 2: B1 chain 2 with R163T, R223E
B15: FIXa-R318Y/R338E/R403E/E410N (protein)
chain 1: B1 chain 1
chain 2: B1 chain 2 with R158E, R163T, R223E
B16: FIXa-R318Y/R338E/T412A (protein)
chain 1: B1 chain 1
chain 2: B1 chain 2 with R158E, R163T, N230E, T232A
B17: FIXa-Y155F/N260S/R318Y/R338E/R403E/E410N (protein)
chain 1: B1 chain 1
chain 2: B1 chain 2 with N80S, R158E, R163T, R223E
B18: FIXa-R338E/R403E/E410N (protein)
chain 1: B1 chain 1
chain 2: B1 chain 2 with Y138R, R158E, R163T, R223E
B19: FIXa-K228N/R338E/R403E (protein)
chain 1: B1 chain 1
chain 2: B1 chain 2 with K48N, Y138R, R158E, R163T, R223E, N230E
B20: FIXa-R318Y/R338E/E410N (protein)
chain 1: B1 chain 1
chain 2: B1 chain 2 with R158E, R163T

Key:
[1] = target: Factor X (FX) zymogen, active site titrated and DFP/EGR-cmk treated, P00742
Factor X (FX) zymogen, active site titrated and DFP/EGR-cmk treated, P00742, sequence (P00742 whole entry, looked up): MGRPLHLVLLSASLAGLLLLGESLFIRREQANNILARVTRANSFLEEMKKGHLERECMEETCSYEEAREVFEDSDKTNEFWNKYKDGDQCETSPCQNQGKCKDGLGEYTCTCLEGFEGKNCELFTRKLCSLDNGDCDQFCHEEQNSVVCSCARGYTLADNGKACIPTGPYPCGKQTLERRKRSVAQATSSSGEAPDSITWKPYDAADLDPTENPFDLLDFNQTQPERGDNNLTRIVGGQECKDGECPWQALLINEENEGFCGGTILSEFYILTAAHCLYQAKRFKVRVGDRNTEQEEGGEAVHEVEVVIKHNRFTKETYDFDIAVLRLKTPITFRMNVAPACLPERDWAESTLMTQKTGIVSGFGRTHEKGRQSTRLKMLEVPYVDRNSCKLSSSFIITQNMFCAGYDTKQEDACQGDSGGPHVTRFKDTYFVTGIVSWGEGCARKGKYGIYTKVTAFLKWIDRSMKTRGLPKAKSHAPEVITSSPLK

[2] = target: T1, Antithrombin III (plasma purified human AT-III, Molecular Innovations); assay: same assay; ratio to recombinant wild-type FIXa (Catalyst Biosciences WT)
[3] = target: antithrombin III (plasma purified human AT-III), used as the AT-III/unfractionated heparin complex; assay: K0.5 ratio to Catalyst Biosciences WT FIXa, AT-III/UFH inhibition assay
[4] = target: T1, Antithrombin III (plasma purified human …); assay: AT-III/UFH inhibition: FIXa variant incubated with AT-III dilutions in excess unfractionated heparin, residual cleavage of Mesyl-D-CHG-Gly-Arg-AMC; K0.5 = AT-III concentration for 50% inhibition (IC50)
[5] = target: plasma purified human antithrombin III (AT-III), as complex with unfractionated heparin; assay: ratio of K0.5 to Catalyst Biosciences WT FIXa, AT-III/UFH inhibition
[6] = target: plasma purified human AT-III (antithrombin III); assay: AT-III/UFH inhibition K0.5, ratio to Catalyst Biosciences WT FIXa

Factor X (FX), P00742, sequence (P00742 whole entry, looked up): as above
Factor X, P00742, sequence (P00742 whole entry, looked up): as above

| Protein | KM (Factor X, P00742) [µM] | % of WT kcat/KM (Factor X (FX), P00742) [%] | kcat (Factor X (FX), P00742) | kcat/KM (Factor X (FX), P00742) [M⁻¹ s⁻¹] | K0.5-mut/K0.5-wt [2] | K0.5-mut/K0.5-wt [3] [fold] | K0.5 [4] [nM] | other results |
| --- | --- | --- | --- | --- | --- | --- | --- | --- |
| B1 | – | – | – | – | – | – | – | % of WT kcat/KM (against recombinant Catalyst Biosciences WT FIXa) [1]: 135%; kcat/KM (catalytic activity for FX activation; Xase complex with FVIIIa, PC/PS vesicles and Ca2+; fluorogenic Spectrafluor FXa read-out) [1]: 6.2e+07 M⁻¹ s⁻¹ |
| B2 | – | – | – | – | – | – | – | % of WT kcat/KM (against recombinant Catalyst Biosciences WT FIXa) [1]: 593%; kcat/KM (catalytic activity for FX activation; Xase complex with FVIIIa, PC/PS vesicles and Ca2+; fluorogenic Spectrafluor FXa read-out) [1]: 2.7e+08 M⁻¹ s⁻¹ |
| B3 | – | – | – | – | – | – | – | % of WT kcat/KM (against recombinant Catalyst Biosciences WT FIXa) [1]: 636%; kcat/KM (catalytic activity for FX activation; Xase complex with FVIIIa, PC/PS vesicles and Ca2+; fluorogenic Spectrafluor FXa read-out) [1]: 2.9e+08 M⁻¹ s⁻¹ |
| B4 | – | – | – | – | – | – | – | % of WT kcat/KM (against recombinant Catalyst Biosciences WT FIXa) [1]: 278%; kcat/KM (catalytic activity for FX activation; Xase complex with FVIIIa, PC/PS vesicles and Ca2+; fluorogenic Spectrafluor FXa read-out) [1]: 1.3e+08 M⁻¹ s⁻¹ |
| B5 | 0.0399 | 31 | 0.6 s⁻¹ | 1.4e+07 | 42.5 | 42.5 | 822 | – |
| B6 | 0.0455 | 94 | 1.7 s⁻¹ | 4.2e+07 | 19.5 | 19.5 | 377 | – |
| B7 | 0.0241 | 234 | 2.5 s⁻¹ | 1e+08 | 60.5 | 60.5 | 1170 | – |
| B8 | 0.0385 | 139 | 2.3 s⁻¹ | 6.2e+07 | 21.9 | 21.9 | 423 | – |
| B9 | 0.0475 | 45 | 0.9 s⁻¹ | 2e+07 | 374 | 374 | 7230 | – |
| B10 | 0.0511 | 42 | 0.9 s⁻¹ | 1.9e+07 | 78.6 | 78.6 | 1520 | – |
| B11 | 0.0189 | – | 4.8 s⁻¹ | – | 327 | 327 | 6330 | – |
| B12 | 0.016 | – | 5.6 s⁻¹ | – | 56.8 | 56.8 | 1100 | – |
| B13 | 0.042 | – | 5 s⁻¹ | – | 24.6 | 24.6 | 475 | – |
| B14 | 0.0883 | – | 2.3 s⁻¹ | – | 366 | 366 | 7070 | – |
| B15 | 0.0455 | – | 5 s⁻¹ and 5.8 s⁻¹ | – | 304 | 304 | 5880 | catalytic activity (kcat/KM) for activation of FX (Factor X (FX), P00742): displayed some of the greatest increases in catalytic activity |
| B16 | – | – | – | – | – | – | – | K0.5-mut/K0.5-wt [5]: 396; K0.5-mut/K0.5-wt [6]: 396; % of WT kcat/KM (Factor X, P00742): 661%; kcat (Factor X, P00742): 7 s⁻¹; kcat/KM (Factor X, P00742): 3e+08 M⁻¹ s⁻¹; KM (Factor X (FX), P00742): 0.0235 µM; kcat of FX activation by FIXa (Xase complex with FVIIIa, PC/PS vesicles, Ca2+) (Factor X (FX), P00742): 7 s⁻¹ |
| B17 | – | – | – | – | – | – | – | K0.5-mut/K0.5-wt [5]: 501; K0.5-mut/K0.5-wt [6]: 501; % of WT kcat/KM (Factor X, P00742): 156%; kcat (Factor X, P00742): 5.8 s⁻¹; kcat/KM (Factor X, P00742): 7e+07 M⁻¹ s⁻¹; KM (Factor X (FX), P00742): 0.0839 µM; kcat of FX activation by FIXa (Xase complex with FVIIIa, PC/PS vesicles, Ca2+) (Factor X (FX), P00742): 5.8 s⁻¹ |
| B18 | 0.0455 | – | – | – | 122 | 122 | 2350 | – |
| B19 | 0.0592 | – | – | – | 86.8 | 86.8 | 1680 | – |
| B20 | 0.0142 | – | – | – | 179 | 179 | 3460 | – |
